In the DeepSol protein solubility set:

Assay: soluble on expression in E. coli; label from the status in PepcDB or PDB records

Sequence	soluble on expression in E. coli
MSLKHHGKIKIKHAVKVLKVSRSGFYEYMHRRPSKQQVEREILSEKIKAVFHEHKGRYGAVRITKVLHNTGIMTNTKRVGKLMHLMGLYAKGSRYKYKHYNRKGASLSRPNLINQIFKATAPNKVWLGDMTYIPTKEGTLYLAVNIDVFSRKIVGWSMSSRMQDKLVRDCFLQACGKEHPQPGLIVHTDQGSQYTSSRYQSTLRQVGAQSSMSRKGNPYDNAMMESFYKTLKRELINDAHFETRAEATQEIFKYIETYYNTKRMHSGLDYKSPKDFEKYNSEGHHHHHH	not soluble
MSLKIAKVEALSVAMGDGTGWMPTSAFVRITAEDGTVGWGEASPMLGGIASLGVVARDIAPFLEGQEVLDHAVLLDRMMHRLVKLGPEGIATAALAACDIALWDLKGKLLGQPIYKLLGGAWRTRLPCYSSIGGNAARSVDEVVREVARRVEAEQPAAVKIRWDGDRTRCDVDIPGDIAKARAVRELLGPDAVIGFDANNGYSVGGAIRVGRALEDLGYSWFEEPVQHYHVGAMGEVAQRLDITVSAGEQTYTLQALKDLILSGVRMVQPDIVKMGGITGMMQCAALAHAHGVEFVPHQTQPGVGHFANIHVLSTLMHMTKPVELADRWDRGRPVFRNPAEPVDGHFALGDAPGLGIVVDEDELASRATEITVGRDQRPPAGGQYEGHHHHHH	soluble
MSLKIAVLDDYQDAVRKLDCFSLLQDHEVKVFNNTVKGVGQLAARVADVEAIVLIRERTRVTRQLLDRLPKLKIISQTGRVSRDAGGHIDLEACTDKGVVVLEGKGSPVAPAELTWALVMAAQRRIPQYVASLKHGAWQQSGLKSTTMPPNFGIGRVLKGQTLGIFGYGKIGQLVAGYGRAFGMNVLVWGRENSKERARADGFAVAESKDALFEQSDVLSVHLRLNDETRGIVTVADLTRMKPTALFVNTSRAELVEENGMVTALNRGRPGMAAIDVFETEPILQGHTLLRMENCICTPHIGYVERESYEMYFGIAFQNILDILQGNVDSVANPTALAPALIRAEGHHHHHH	soluble
MSLKIIVIGGGAAGMSAASKAKRVNPDSEVIVVESGSYVSYAECGIPYYLQGVVGHIEDLLHYPLSEFTEKRGIKVLLHTTVTRIDTLHSSVLLNNGDVLKYDRLIIATGSRPKPIDVISDRTISIRSLESAMRARNLIEKSKDVTIVGAGVLGVELASVLAESGKNVKVISKYDRVLPQLDEDIGKIFHEYFSSRIDVQKQSSLKSAEEDRGRVKITTSVDDHECDAVIYATGIIPNSEIAVEAGIKTGDRNAILTNGHMETSEPGVYAAGDVATVRNIVTGLDEMMPLAQIANKAGRVAGSNASNSEMVFPGALGTTLVKVFDYEVGFTGINESRAKALGIPYEKTLIKAKSRANYYPGKQDIYVKIIYGKNDKRLLGAQVIGTDGAAWRLNTIATAIFGGFKVSDLFYDDLGYTPPFGPVWDSIVIAGSVSMREGHHHHHH	soluble
MSLKINVAPENPQYRIVEIFESLQGEGWNTGMPAVFVRLGKCNLACGWCDTDYLTFGMMGLSDILGRLKTYAARNIIITGGEPTIQPHLDMLLDTLKAEGYFLCLETNGLNPAPPQIDYVATSPKACYAAKYENSCIETADEVRIVADGDVLAFCENMERKIRAHHYYLSPCEQDGAMNIYDTIRQIGILNSRPDASVHWQLSVQTHKWAGIEEGHHHHHH	soluble
MSLKIPEAVNHINVQNNIDLVDGKTNPNKATKALQKNILRVTNSSSSGISEKHLDHCANTVKNFLRKSIAAQSYSKMFSQGTSFKSLNLSIEAPSGARSSFRSLEHLDKVSRHYISEIIQKVHPLSSDERHLLSIIINSNFNFRHQSNSNLSNNILNIKSFDKIQSENIQTHKNTYSEDIKEISNHDFVFFGVEISNHQEKLPLNKTHHTVDFGANAYIIDHDSPYGYMTLTDHFDNAIPPVFYHEHQSFFLDNFKEVVDEVSRYVHGNQGKTDVPIFNTKDMRLGIGLHLIDFIRKSKDQGFREFCYNKNIDPVSLDRIINFVFQLEYHIPRMLSTDNFKKIKLRDISLEDAIKASNYEEINNKVTDKKMAHQALAYSLGNKKADIALYLLSKFNFTKQDVAEMEKMNNNRYCNLYDVEYLLSKDGANYKVLEYFINNGLVDVNKKFQKANSGDTMLDNAMKSKNPKMIDFLLKNGAILGKRFEIEGHHHHHH	soluble
MSLKISAIELYEYDLTYSHGTYVMSKGRSAKQQPSNLVRVITDSGIEGWGEAATLSGNYLPVFAGSTRAALRELAPLLIGQDPRGSTHLQRLMSSLLMGQANAKNAFDVACWDIFGKSVDLPISALIGGVLSTELPIFEAVPLSSTEESLDYIGKRSAQGIMRYQIKIGDDPVKDAARARAIVKAFPDIFFFVDANAGYTLLEAQIAMRALDDTNLYVEQPCRDIADCAMLRKISGLPIVLDEAVLTHADLYRAKYEVSAAAVNIKLGRLGGITPAVAMRNAAQDLGMHFCIEDVWGGDVTAAAVSHVAASAFPENLMHTSFFNDWTNEHVAGYQPRSRNGRGAAPTGPGLGITVDRSLLGAPVASFSEGHHHHHH	soluble
MSLKISHIDLGEHPILLAPMEDVTDPAFRLMCKKFGADMVYTEFVSSDALIRAVSKTAQKLSISDEERPVAIQIYGKDTETMVEAAKIVEQAQPDILDINFGCPVKRVAGKGAGAGMLQNIPKMLEITRAVVDAVKIPVTVKTRLGWDANNKIIVDLAEQLQDCGIAALTIHGRTRAQMYTGEADWTLIGEVKNNQRMHIPIIGNGDVTTPQRCKECFDRYGVDAVMIGRASFGRPWIFKEVKHYLETGEELPPLSFEWCMEVLRQEVIDSVNLLDERRGILHVRRHLAASPLFKGIPNFKETRIAMLRAETKEELFRIFETIPEKVNSLLDEGHHHHHH	soluble
MSLKIVSFQDTKQNTGMESAEISEELNKLSKEKSDLQKKVNELQSQVKGYQNAAASSGSMNKQIVNELNTSNMLIGSVDVTGPGIILVITPQNISSSTNNSTGQNNDVITGEDLLYLINELNFSQAEAISINDVRITSMTGIRSSSGGSDIFVGDDRISPYEKITIKAIGDSKLLYSALSYPGVLSSVPSGYKADYDKYGSIKIGKTNKVIKFDYAKPISKEGHHHHHH	soluble
MSLKKQLVKTDGHNQLDQPNTKALQLKKKQFNSGVRVTSEISFLREVIAHHPGIETERVIDNQTFGSAMYLERAQKEHQLFIKILRQHGTKVHYLQDLLLEALSAADPNVRQDFIKNFLLESGIKSVSTFEACLNFFRSLDSLVDVIKVMFGGIKVSDVPPITPQRFADIHVSNSPFLIKPLSFSLYPHKFFNTLGTGVALFVTNDSELKRHSLVYEYIMRFHPRFDGVKLYTNRDFKNCLINSSDIIQISNEILLIGISHDTDVLGIESLARNLLSDHTNPIKQIIAINIHKFGAKTNLNKLIAMVDVDKFIIARKVLQATEIFELTATAQRDVDGLAQIKFKPLKFNFGEIIEAIIDKQPRFVIIGGGDEVAERKELLDCGMGVLNLSPGEIVVFDRNHYTNNLLNELGLIIHKIPASELSRGPSGPLEMVCSLWREEGHHHHHH	soluble
MSLKKRIPTLLATMIATALYSQQGLAADLASQCMLGVPSYDRPLVQGDTNDLPVTINANHAKGDYPDDAVFTGSVDIMQGNSRLQADEVQLHQKEAPGQPEPVRTVDALGNVHYDDNQVILKGPKGWANLNTKDTNVWEGDYQMVGRQGRGKADLMKQRGENRYTILDNGSFTSCLPGSDTWSVVGSEIIHDREEQVAEIWNARFKVGPVSIFYSPYLQLPVGDKRRSGFLIPNAKYTTTNYFEFYLPYYWNIAPNMDATITPHYMHRRGNIMWENEFRYLSQAGAGLMELDYLPSDKVYEDEHPNDDSSRRWLFYWNHSGVMDQVWRFNVDYTKVSDPSYFNDFDNKYGSSTDGYATQKFSVGYAVQNFNATVSTKQFQVFSEQNTSSYSAEPQLDVNYYQNDVGPFDTRIYGQAVHFVNTRDDMPEATRVHLEPTINLPLSNNWGSINTEAKLLATHYQQTNLDWYNSRNTTKLDESVNRVMPQFKVDGKMVFERDMEMLAPGYTQTLEPRAQYLYVPYRDQSDIYNYDSSLLQSDYSGLFRDRTYGGLDRIASANQVTTGVTSRIYDDAAVERFNISVGQIYYFTESRTGDDNITWENDDKTGSLVWAGDTYWRISERWGLRGGIQYDTRLDNVATSNSSIEYRRDEDRLVQLNYRYASPEYIQATLPKYYSTAEQYKNGISQVGAVASWPIADRWSIVGAYYYDTNANKQADSMLGVQYSSCCYAIRVGYERKLNGWDNDKQHAVYDNAIGFNIELRGLSSNYGLGTQEMLRSNILPYQNTLEGHHHHHH	soluble
